Laboratory results from PMC3908897.
Substitutions are numbered along the chain they refer to. Names and notes keep the numbering of the source.

B1: T. fusca OSBS (Thermobifida fusca YX; N71A) (protein)
chain: MTGRAFAIPLRTRFRGITVREGMLVRGAAGWGEFSPFAEYGPRECARWWAACYEAAELGWPAPVRDTVPVAATVPAVGPEEAARIVASSGCTTAKVKVAERGQSEANDVARVEAVRDALGPRGRVRIDVNGAWDVDTAVRMIRLLDRFELEYVEQPCATVDELAEVRRRVSVPIAADESIRRAEDPLRVRDAEAADVVVLKVQPLGGVRAALRLAEECGLPVVVSSAVETSVGLAAGVALAAALPELPYACGLATLRLLHADVCDDPLLPVHGVLPVRRVDVSEQRLAEVEIDPAAWQARLAAARAAWEQVEREPGP
B2: T. fusca OSBS (Thermobifida fusca YX; G252A) (protein)
chain: B1 chain with A71N, G252A
B3: T. fusca OSBS (Thermobifida fusca YX) (protein)
chain: B1 chain with A71N
B4: T. fusca OSBS (Thermobifida fusca YX; R126M) (protein)
chain: B1 chain with A71N, R126M
B5: T. fusca OSBS (Thermobifida fusca YX; F37A) (protein)
chain: B1 chain with F37A, A71N
B6: T. fusca OSBS (Thermobifida fusca YX; R15A) (protein)
chain: B1 chain with R15A, A71N
B7: T. fusca OSBS (Thermobifida fusca YX; G252T) (protein)
chain: B1 chain with A71N, G252T
B8: E. coli OSBS (Escherichia coli K-12; A107N) (protein)
chain: MRSAQVYRWQIPMDAGVVLRDRRLKTRDGLYVCLREGEREGWGEISPLPGFSQETWEEAQSVLLAWVNNWLAGDCELPQMPSVAFGVSCALAELTDTLPQAANYRANPLCNGDPDDLILKLADMPGEKVAKVKVGLYEAVRDGMVVNLLLEAIPDLHLRLDANRAWTPLKGQQFAKYVNPDYRDRIAFLEEPCKTRDDSRAFARETGIAIAWDESLREPDFAFVAEEGVRAVVIKPTLTGSLEKVREQVQAAHALGLTAVISSSIESSLGLTQLARIAAWLTPDTIPGLDTLDLMQAQQVRRWPGSTLPVVEVDALERLL
B9: E. coli OSBS (Escherichia coli K-12; L109T) (protein)
chain: B8 chain with N107A, L109T
B10: E. coli OSBS (Escherichia coli K-12; R20S) (protein)
chain: B8 chain with R20S, N107A
B11: T. elongatus OSBS (Thermosynechococcus vestitus BP-1) (protein)
chain: MRWQWRIYEEPLQEPLTTAQGVWRSRSGIYLRLEDEQGQVGYGEIAPLPGWGSETLNADIALCQQLPGHLTPEIMATIPEALPAAQFGFATAWQSVGRLPYRVRPWPICALLGSGQAALEQWQQSWQRGQTTFKWKVGVMSPEEEQAILKALLAALPPGAKLRLDANGSWDRATANRWFAWLDRHGNGKIEYVEQPLPPDQWQALLSLAQTVTTAIALDESVVSAAEVQRWVDRGWPGFFVIKTALFGDPDSLSLLLRRGLEPQRLVFSSALEGAIARTAIFHLLETWQPCHALGFGVDRWRSAPLLTTLTAYERLWERLDQ
B12: T. elongatus OSBS (Thermosynechococcus vestitus BP-1; G295A) (protein)
chain: B11 chain with G295A

substrate: O=C(O)CCC(=O)C1=CC=C[C@@H](O)[C@@H]1C(=O)O; assay: purified protein; format: biochemical, Thermobifida fusca; conditions: 50 mM Tris pH 8.0, 0.1 mM MnCl2, 25°C

| Protein | Km | kcat | kcat/Km |
| --- | --- | --- | --- |
| B1 | 322 ± 56 µM | 10 ± 0.7 s⁻¹ | 31000 M⁻¹ s⁻¹ |
| B2 | 86 ± 6 µM | 16 ± 0.3 s⁻¹ | 190000 M⁻¹ s⁻¹ |
| B3 | 182 ± 22 µM | 122 ± 4.6 s⁻¹ | 670000 M⁻¹ s⁻¹ |
| B4 | 470 ± 42 µM | 104 ± 4 s⁻¹ | 220000 M⁻¹ s⁻¹ |
| B5 | 666 ± 151 µM | 163 ± 19 s⁻¹ | 250000 M⁻¹ s⁻¹ |
| B6 | 7 ± 1.4 µM | 0.6 ± 0.02 s⁻¹ | 86000 M⁻¹ s⁻¹ |
| B7 | 668 ± 72 µM | 13 ± 0.7 s⁻¹ | 19000 M⁻¹ s⁻¹ |

substrate: O=C(O)CCC(=O)C1=CC=C[C@@H](O)[C@@H]1C(=O)O; assay: purified protein; format: biochemical, Escherichia coli; conditions: 50 mM Tris pH 8.0, 0.1 mM MnCl2, 25°C; remark: another data set of the same source

| Protein | Km | kcat | kcat/Km |
| --- | --- | --- | --- |
| B8 | 109 ± 17 µM | 32 ± 1.9 s⁻¹ | 290000 M⁻¹ s⁻¹ |
| B9 | 83 ± 17 µM | 3.6 ± 0.3 s⁻¹ | 43000 M⁻¹ s⁻¹ |
| B10 | 22 ± 0.1 µM | 0.5 ± 0.1 s⁻¹ | 23000 M⁻¹ s⁻¹ |

substrate: O=C(O)CCC(=O)C1=CC=C[C@@H](O)[C@@H]1C(=O)O; assay: purified protein; format: biochemical, Thermosynechococcus vestitus; conditions: 50 mM Tris pH 8.0, 0.1 mM MnCl2, 25°C; remark: another data set of the same source

| Protein | Km | kcat | kcat/Km |
| --- | --- | --- | --- |
| B11 | 78 ± 17 µM | 80 ± 4 s⁻¹ | 1e+06 M⁻¹ s⁻¹ |
| B12 | 304 ± 82 µM | 4 ± 0.4 s⁻¹ | 13000 M⁻¹ s⁻¹ |
